Target: the molecule itself
Assay: SEC; native molecular weight of purified EnoCa (~92-96 kDa against a ~46 kDa subunit on SDS gel); gel filtration on Sephacryl S-300 (2.5 x 100 cm), 1 ml/min, is a step of the purification; the data are in Figures S1-S3

B1: enolase-1 from Chloroflexus aurantiacus (enzyme, Chloroflexus aurantiacus strain J.10.fl., UniProt A9WCM4 1-426, looked up)
chain: MSTLIEAIVAREVLDSRGNPTIEVDVRLESGDVGRAIVPSGASTGAHEALELRDGDKSRYNGKGVLKAVQAVNEDIAEALIGFDAADQIALDQELIALDGTPNKSKLGANAILGVSLAAAKAAAAAFGLPLYRYLGGVYAHVLPVPMMNIMNGGQHATNSTDFQEFMIMPVGAESFREGLRWGAEIYHMLKKVIHDRGFSTTVGDEGGFAPSLPTNDAPLQLIMEAIEKAGYRPGEQIVIALDPATTEIFEDGKYHLKREGRSLSSAEMVDYWVDLVNRYPIISLEDGLAEDDWEGWALLRAKLGDRVQLVGDDFLVTNVQRLQRAIEAKAANSILIKLNQIGSLTETLSAIQLAQRSGWTAVVSHRSGESEDVTIADLVVATNAGQIKTGAPARTDRIAKYNQLLRIEEELGSAARYAGRSAFKV
notes: enolase-1 (2-phospho-D-glycerate hydrolyase, EC 4.2.1.11) of Chloroflexus aurantiacus strain J.10.fl., endogenous protein; subunit ~46 kDa by SDS-PAGE; Native protein purified from the organism, no tags; also called EnoCa; EnoCa-1
For B1, the “stoichiometry N” value was 2.
